Values quoted from earlier work, collected in patent US9358478B2, “Spray-drying apparatus and methods of using the same” (Bend Research, Inc., priority 2010, dated 2016).

Conditions: in words

Peptide YY (PYY) [Active Agent 3]
solubility in water: soluble
